Assay results published in a protein production outcome set (Wang et al. 2014).

Test: label from the status in PepcDB records

Row | Sequence | protein production
1 | MRFNYPPDGVSQLIASRWKIGVALALAVLLFFAFLVLLPLADGIVLGIVFAYIARPIQVKFGKYRKIGALIASLFIFIPIVFIVGAGVVEILNQISWIFENQTSVMSGILDFIHGLEIPSTYVERINNAIWNLFTSLLPAVGSVGLISYAQSIGLFVINFIVSIFFCYFLLADGDRLYCAFIGMIPSDYQNIVNRYASHLDLILKGVFIGNAYSALIVSVTSVFVFRAFGFSHVLALATLVFIASVIPLFAGYMVLVPMALFRYFEQGFQSAALFFVVSSLVIYGPPELILRPFLTSLKSKIHPMLLMLAFLGGAFVGGIAGFFAAPILLGALVAAYRVYQEQIHPELVAQADVYLKDPAKACRTDEKNSFQ | failed
2 | GVLDDIRFGVRRTLNARIASQAQWYALGAEQLARTRIAQLMDREPNKTTLEGGWNGRVISFPIEQGRMEAKLTDATGCFNLNSVVEANQGEPFRRRELGVRQFTTLLSLVGVSNGPELAENLADWMDSNDVGRAEAEDPGYAQLAQPYRTAGGPLAEVSELRAIRGFTPSVYAALRPYVCALPTTDLSPINVNTLPPERALLLTALTEGRIGRETAARVLSGRPVNGWPDAQAFWGQQALVATPPGDVVRDQIKFRTRFFALDSQIVFADMPVFMTALFETPSASKVILA | failed
3 | MIFYFSGTGNSAWVARQLAEGQNEELLSIAMEIDRNKAYKLKEGEKVGFVFPVYAWGPPKIVLRFIHQLKLDKPGYLFFVCTCGDDTGRTAQIFSSAVTRKGWQCVAGYSVTMPNTYVSLPGFDVDDKDIETQKVQNAVARVRFINEEITSRAQMKQYNCHEGALPFTKSYLLRPLFNAFLMSPKPFHTTEACIGCKKCEKVCPVGNITVTDRPVWGGNCTQCLACYHVCPVHAVEYGKMTGKKGQYKGRLLKDL | failed
4 | MQMIKPPVQRHSHRRHRLLRSLGHQFSFGFFALCEKQRECKCDMATVMTTNLYNVARHSPHPIIFVCGSWSSLIESLIESAKEEEESMRRRS | failed
5 | MKYVPSFKSLKETENGWELQVSWMITVTLRVTMQKSRDEITYLIKKTEGLVKINSYLRFIILPTRDRTVVRLTFFYKGPFERVAKRQTEEFYRRGVEIFKRDLESVQVERKEERGAPSNAKLLLNMRTLLSTQIGKDQLDEVLEQAMLWSVNSQVFVLISDGSRRVELRFRNGDLESGGDLSSLGDKITVIVKGDRAD | failed
6 | MFETFFSTYLSSTIRFLFLLAPFFVVTMFLALTRGLSMAEKTSIIRRACVSAFILGVILFFAGPLLFNAIGITLNSFRIGAGSLLFLTAISLVNSGTRNHATGLPEEDRDDIAVVPLAIPVMIGPATIGAIMVYGAELKAVPEVAGGLLGLVSGLMILAGLLRLSGYLEKALGKTGLNIMSKISGLILSAMAAEIVLTGIAGFIASTSGA | failed
7 | MTNVRVIKPALAALVAAAACVGGLAFSSAQPAQADTYSDLINAQNQHAASVQREAELKQQLAGASQDLANKVLELDDLTNNKIVAAQAKVTQANEDAATAQDEADAASGRLSAAQKDKETLEEQIKQTGKDYDDAHAAVAQLARDEMHGSNASDVMSVVTGATSTQDFVNSMQSRDALSRNEANAASSAATSLSTSKNRGERLAAIEKQIAVLKTQSDEKAASAQTAAETAQSERDALDKLRQEGETRRNELSSMVDSLDSQSAKQAAQTVLIASQVDSYNRQFQKEQQDAANRVDTGNQGGTPSTPVTPAPAPAPAPAPAPAPAPAPAPSVGGQGTSNGDYGNAYAAGQCTYWAYERRRQMGIGTPSYLGNGGFWWRSAPAYGLRVDHTPQVGAALSFLPGQDGADGTYGHVAVVEAVYGDGTFQISEMNWGGPWNMHYRTLTNLGQYWFVH | failed
8 | MDIMNVYKRGNTFQYDFYFKGKRYRKSGYLTKRDAQIAMNIKLNDLLEGYDTDNNLTFVDFYYRWLEITKLDIINDTSYKRYITAIKAFKDCFGNKLISDIDSLSYQKFLKDYGRGHFLNNGQLRPRTSNTVSKMNNCLKQAFESAVEQGYIKKNPAKNAKPFGLKSSQSIDDKFMSITQMKNLIHYVKKNDALSHLCIYILIITGSRFKPVQHLRYEDLNFKKSCIHLNDTKNKYSKRNVKVRIKDLEYIQSVINKHPINQNGYIFHNFINFISYSAINDVLVRFCLKYKYDKYTLKSLRHTHCSYLLAKGISIQYISKRLGHADIHTTLKIYSHLIKEFEDSENSLIEKNLNDLFSD | failed
9 | MKKTLILGATPETNRYAYLAAERLKSHGHEFIPVGRKKGEVLGKTIINERPVIEGVDTVTLYINPQNQLSEYNYILSLKPKRVIFNPGTENEELEEILSENGIEPVIGCTLVMLSAGT | failed
10 | NSGKRLIQRSIERALDFRKEVQRLREESDGWFFDIWQPEAVDKAECWPVAPGEDWHGFKDADADHMYLDPVKVTILTPGMDEQGNMDEEGIPAALVAKFLDERGVVVEKTGPYNLLFLFSIGIDKTRAMGLLRGLTEFKRAYDLNLRVKNMLPDLYAEDPDFYRNMRIQDLAQGIHRLIRQHQ | failed
11 | MKNKTYYLSIIFTSLVCLFLFTKALGFILWINGAPIDKWVAWVGLFAIPIFIYYSFPGRSLKKTQKIVTIVIIIVQIIWLKWAINQSKYYVYVNSNNILPSPYIIQETPNSNTPISLGQRLLTNYTFYKSIHSYLYVRENVTKSDRGIVDWIKHFDSEIKEEEDDGRIYIETYKGKLFFK | failed
12 | MASIQKLGNGWRYRVSYKDAGKYKTKTKGGFRTKKECELAAAELEKKLHVGMDISAGDRLFAEYMRTWFELYQNGKHSPEHDRNIERSVKLVEEHFPGVKMKELTREMYQKFINEISPKYATDTVKKRHTYIKACLQEAIQEGIIFKDPTYKVIIKGKKDTKNEELKYLNFNEVQKLVAETKKDLRPRYISRYVILFAIATGARFSEIMGITWDCVDFKNRTITINKTWDFKDTNDFSDTKNYASKRTITIDTETVDMLQTLKSEQNKKALQTGLRNKKNLVFVNTKMQLVSNNAVNKTLRTLCKAAKIKEITCHGLRHTHASMLLYKGVNIKYISRRLGHKDIVTTLQTYSHILDEMEQVESRVVDDTMKEIHGAKFVQKNF | failed
13 | ANFADSGKSLPPSMTSVPVTPVAAHTSSTPLTDIAADTTANDAPAIAAEFGQPDWPEEFGRKITWLATQRMQAAELKLHPAHLGPIEISLQLSDDQRLTAQFISHHPAVREAIEANLPRLREIMAENGITLADTSVSADT | not failed
14 | MSLILYDYFRSTACYRVRIALNLKKIAYEKIEVHLVNNGGEQHSLQYHQINPQELVPSLDINGQILSQSMAIIDYLEEIHPEMPLLPKDPFMKATLKSMALIVACDMHPLNNLRVLNRLKEQFNANEEQVLEWYHHWLKTGFDAFEEKLGALERDKPVCFGSEVGLADVCLIPQVYNAHRFHFDMASYPIINEINEYCLTLPAFHDAAPEAISSEGHHHHHH | not failed
15 | MSSQVIPALPKTFSSSLDLWREKNDQLVRQAKQLTRDSRPSLRRQQSAQDTLEGLRELLLTLQGLPAAVPALPLELTVLCNCIILRASLVQAFTEDLTQDLQRGLERVLEAQHHLEPKSQQGLKELWHSVLSASSLPPELLPALHCLASLQAVFWMSTDHLEDLTLLLQTLNGSQTQSSEDLLLLLKSWSPPAEESPAPLILQDAESLRDVLLTAFACRQGFQELITGSLPHAQSNLHEAASGLCPPSVLVQVYTALGACLRKMGNPQRALLYLTEALKVGTTCALPLLEASRVYRQLGDRAAELESLELLVEALSATHSSETFKSLIEVELLLPQPDPASPLHCGTQSQAKHLLASRCLQTGRAEDAAEHYLDLLAMLLGGSETRFSPPTSSLGPCIPELCLEAAAALIQAGRALDALTVCEELLNRTSSLLPKMSSLWENARKRAKELPCCPVWVSATHLLQGQAWSQLKAQKEALSEFSQCLELLFRTLPEDKEQGSDCEQKCRSDVALKQLRVAALISRGLEWVASGQDTKALSDFLLSVQICPGNRDGSFYLLQTLKRLDRKNEASAFWREAHSQLPLEDAAGSLPLYLETCLSWIHPPNREAFLEEFGTSVLESCVL | failed
16 | MMEQKIMEVLRRMQAILDEACLRDLKTVLQVVFEGCEISQEKRELRVPDRSWAIDLEEYLMSKALEGKSPGTVDRYRYELQRLLSYVNKAVRDITEGDISGYMRAYKAIRQVSNQTLKNVRAVYSSFFAWLRDRDRIRRNPMALVEAIKVEQKIRKPYTDEEREMLLRNCSTLRDKAMMEFFYSTAVRVSELVTLNRDDIRFTSKDLIVFGKGSKERRVYLNDRTNLYMKEYLDSRTDGSPALIVSIRRPHSRLSKTGIEDIIRRTGQRAGVEKAHPHRFRRTSLTNALNRGMPLQEAMVMAGHAKPETTMGYCTVDQEGVKYHHQKYLSA | failed
